In data set [1] the target is T1, TbGMPR (guanosine 5′-monophosphate reductase) (Trypanosoma brucei, UniProt Q57ZS7, W115R).
T1 construct: gene Tb05.1P6.110; full-length, C-terminal histidine-tag
Kind of data set: tryptophan fluorescence quenching. It counts as binding.

Data set [2] has as its target T2, TbGMPR (guanosine 5′-monophosphate reductase) (Trypanosoma brucei, UniProt Q57ZS7).
T2 sequence (Q57ZS7 1-491): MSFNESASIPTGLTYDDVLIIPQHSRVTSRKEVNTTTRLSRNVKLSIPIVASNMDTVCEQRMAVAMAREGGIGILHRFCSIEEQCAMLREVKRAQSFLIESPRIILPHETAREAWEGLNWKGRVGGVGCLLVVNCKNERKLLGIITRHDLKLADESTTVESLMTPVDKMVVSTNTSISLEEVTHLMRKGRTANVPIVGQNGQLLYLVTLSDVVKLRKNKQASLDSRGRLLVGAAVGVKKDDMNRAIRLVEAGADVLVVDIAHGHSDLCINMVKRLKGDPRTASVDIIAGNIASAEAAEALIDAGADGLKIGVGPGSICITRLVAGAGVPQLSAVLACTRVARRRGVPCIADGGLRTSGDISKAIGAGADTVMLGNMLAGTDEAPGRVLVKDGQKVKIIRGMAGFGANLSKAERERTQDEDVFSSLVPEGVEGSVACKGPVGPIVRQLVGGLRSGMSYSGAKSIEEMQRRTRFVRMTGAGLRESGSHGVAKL
Kind of data set: co-crystal structure at […] Å; activation of purified enzyme (EC50). It counts as biochemical. Set-up: gene Tb05.1P6.110; wild-type, C-terminal histidine-tag.

For data set [3], the target named is Trypanosoma brucei guanosine 5'-monophosphate reductase, wild type (Trypanosoma brucei (ILTat 1.4)). Kind of data set: crystal structure; wild-type TbGMPR co-crystallised with up to 1 mM GTP (TbGMPR/GTP), 2.50 Å; 20 °C.
Data set [4] has the same target. Kind of data set: SEC-SAXS; with 10 mM GMP; 4 or 12 mg/mL protein in 50 mM Tris-HCl pH 7.8, 0.5 M KCl, 3 mM EDTA, 1 mM DTT; 20 °C; fractions fitted by OLIGOMER
For orientation: In gel filtration, larger molecules generally elute earlier.

Data set [5] has the same target. Kind of data set: SEC-SAXS; with 10 mM GTP; 4 or 12 mg/mL protein in 50 mM Tris-HCl pH 7.8, 0.5 M KCl, 3 mM EDTA, 1 mM DTT; 20 °C; fractions fitted by OLIGOMER
The target is the same in data set [6]. Kind of data set: SEC-SAXS; with 10 mM ATP; 4 or 12 mg/mL protein in 50 mM Tris-HCl pH 7.8, 0.5 M KCl, 3 mM EDTA, 1 mM DTT; 20 °C; fractions fitted by OLIGOMER; octamer to tetramers.
Data set [7] has the same target. Kind of data set: SEC-SAXS; no ligand; 4 or 12 mg/mL protein in 50 mM Tris-HCl pH 7.8, 0.5 M KCl, 3 mM EDTA, 1 mM DTT; Shodex KW403-4F; 20 °C; mass from volume of correlation, fractions of tetramer and octamers fitted by OLIGOMER
The target in data set [8] is TbGMPR∆CBS (Trypanosoma brucei GMP reductase lacking the CBS domain) (Trypanosoma brucei (ILTat 1.4)). Kind of data set: SEC-SAXS.
For data set [9], the target named is TbGMPR C318A (inactive mutant of Trypanosoma brucei GMP reductase) (Trypanosoma brucei (ILTat 1.4)). Kind of data set: crystal structure; TbGMPR C318A co-crystallised with up to 3 mM GMP (C318A/GMP), 1.90 Å; 4 °C.
Data set [10] shares this target. Kind of data set: crystal structure; TbGMPR C318A without ligand (C318A apo), 2.80 Å; sitting drop, 4 °C; oligomer from crystal packing by PISA.
The target of data set [11] is T2, TbGMPR (guanosine 5′-monophosphate reductase). Kind of data set: biochemical. The arrangement: gene Tb05.1P6.110.
Data set [12] concerns the target T1, TbGMPR (guanosine 5′-monophosphate reductase). Kind of data set: tryptophan fluorescence quenching (no Kd obtained). It counts as binding.
Substrate in the data set “purified protein”: Nc1nc2c(ncn2[C@@H]2O[C@H](COP(=O)(O)O)[C@@H](O)[C@H]2O)c(=O)[nH]1
Kind of data set: purified protein. It counts as biochemical, Trypanosoma brucei. Particulars: NADPH active site; positive cooperativity via CBS domain.

Read-outs that look alike come from different tables or passages of the source.

Broadly, the Kd is a measure of binding affinity in units of concentration. For orientation: EC50 means the midpoint of the concentration-response curve. As usually defined, the stoichiometry N is the number of molecules, sites or subunits per partner or assembly. The term kcat denotes the maximal rate divided by the concentration of active sites. By kcat/Km is commonly meant the second-order rate constant that governs catalysis at low substrate concentration.

In the case of `Nc1nc2c(ncn2[C@@H]2O[C@H](COP(=O)(O)OP(=O)(O)OP(=O)(O)O)[C@@H](O)[C@H]2O)c(=O)[nH]1` [GTP], in [1] (read-out: Kd), the Kd turned out to be 6.75 ± 0.58 µM. Moreover, the response in data set [2] was half-maximal at 4.8 µM (EC50).

As for “Trypanosoma brucei guanosine 5'-monophosphate reductase, wild type (enzyme)”, the stoichiometry N in data set [3] and in [7] was 8 throughout. Also, the Octamer, relaxed (%) in data set [4] is 0%; in data set [5] it was 0%; in data set [6], 28%; in data set [7] it was 53.2%. Besides, the Octamer, twisted (%) was determined as 97.8% in data set [4], 100% in [5], 11.2% in data set [6] and 46.8% in data set [7]. Also, the Tetramer (%) was 2.2% in data set [4], 0% in data set [5], 60.8% in data set [6] and 0% in [7].

As for “TbGMPR∆CBS (Trypanosoma brucei GMP reductase lacking the CBS domain) (enzyme)”, the stoichiometry N in data set [8] was determined as 4.

Regarding “TbGMPR C318A (inactive mutant of Trypanosoma brucei GMP reductase) (enzyme)”, the stoichiometry N in data set [9] and in [10] was 8 throughout.

In [1], `Nc1ncnc2c1ncn2[C@@H]1O[C@H](COP(=O)(O)OP(=O)(O)OP(=O)(O)O)[C@@H](O)[C@H]1O` [ATP] gave a Kd of 194 ± 45 µM. The same molecule had an EC50 in data set [11] of 160 µM.

In the case of `Nc1nc2c(ncn2[C@@H]2O[C@H](COP(=O)(O)O)[C@@H](O)[C@H]2O)c(=O)[nH]1` [GMP], the “tryptophan fluorescence quenching (no Kd obtained)” value in [12] is on record as “blue-shifting of the emission spectra of the protein with either GTP or GMP, but not with ATP”.

B1: TbGMPR (guanosine 5′-monophosphate reductase) (Trypanosoma brucei brucei TREU927) (protein)
chain: T2 sequence (Q57ZS7 1-491)
notes: wild-type, C-terminal histidine-tag
Turning to B1, in “purified protein”, the K0.5 is recorded as 184 ± 3 µM, the catalytic constant (kcat) came out at 0.2783 ± 0.0025 s⁻¹ and the kcat/Km was determined as 1520 M⁻¹ s⁻¹.

For the origin of these results see article PMC7160140, “Allosteric regulation accompanied by oligomeric state changes of Trypanosoma brucei GMP reductase through cystathionine-β-synthase domain” (Nature Communications, 2020).
